Assay [1] has as its target SARS-CoV-2 S-RBD for crystallization (residues 330-531, Avi-tag and His-tag removed by 3C protease) (SARS-CoV-2, Wuhan-Hu-1 reference …, UniProt P0DTC2). The assay is described as follows: crystal structure. As to conditions: both partners purified.
Assay [2] concerns the target T1, SARS-CoV-2 S-RBD with Avi-tag and deca-His tag (residues 330-531) (SARS-CoV-2, UniProt P0DTC2, biotin on the Avi tag (BirA) where immobilised on streptavidin sensors or used in ELISA and FSEC). Put plainly: ELISA; Myc-tagged sybody from lysate captured by anti-Myc antibody on protein A-coated plate; 50 nM biotinylated RBD added; streptavidin-HRP; room temperature, TBST. As to conditions: one partner purified. (In general: An ELISA detects its analyte on a solid surface through an enzyme-linked reagent.)

The target in assay [3] is T1, SARS-CoV-2 S-RBD with Avi-tag and …. The assay is described as follows: BLI; Octet RED96; biotinylated RBD immobilised on SA sensor; sybodies as analytes; 30 °C; 0.005% Tween 20, 150 mM NaCl, 20 mM Tris HCl pH 8.0; fitted for 1:1 stoichiometry. As to conditions: both partners purified.
The target in assay [4] is SARS-CoV-2 S-RBD with Avi-tag and deca-His tag (residues 330-531) (SARS-CoV-2, UniProt P0DTC2 330-531). The assay is described as follows: cell-based or functional assay.
For assay [5], the target named is T1, SARS-CoV-2 S-RBD with Avi-tag and …. Put plainly: cell-based or functional assay.

The values below come from article PMC8324831, “A synthetic nanobody targeting RBD protects hamsters from SARS-CoV-2 infection” (Nature Communications, 2021).

B1: sybody SR4 (VHH)
VHH: QVQLVESGGGLVQAGGSLRLSCAASGFPVYSWNMWWYRQAPGKEREWVAAIESHGDSTRYADSVKGRFTISRDNAKNTVYLQMNSLKPEDTAVYYCYVWVGHTYYGQGTQVTVS
Consider B1, for which the binding result in assay [1] and in assay [2] was “binds” throughout.

B2: sybody MR17 (VHH)
VHH: QVQLVESGGGLVQAGGSLRLSCAASGFPVEVWRMEWYRQAPGKEREGVAAIESYGHGTRYADSVKGRFTISRDNAKNTVYLQMNSLKPEDTAVYYCNVKDDGQLAYHYDYWGQGTQVTVS
Take B2: in assay [3], the affinity, expressed as Kd, was 83.7 nM.

B3: Fc-MR3 (Fc fusion)
chain: GSSSQVQLVESGGGLVQAGGSLRLSCAASGFPVNAHFMYWYRQAPGKEREWVAAIYSYGRTLYADSVKGRFTISRDNAKNTVYLQMNSLKPEDTAVYYCNVKDYGAASWEYDYWGQGTQVTVSERKCCVECPPCPAPPVAGPSVFLFPPKPKDTLMISRTPEVTCVVVDVSHEDPEVQFNWYVDGVEVHNAKTKPREEQFNSTFRVVSVLTVVHQDWLNGKEYKCKVSNKGLPAPIEKTISKTKGQPREPQVYTLPPSREEMTKNQVSLTCLVKGFYPSDIAVEWESNGQPENNYKTTPPMLDSDGSFFLYSKLTVDKSRWQQGNVFSCSVMHEALHNHYTQKSLSLSPGK
In the case of B3, the “IC50 of neutralisation of SARS-CoV-2 S pseudovirus on VeroE6-hACE2 cells (blocks RBD-ACE2)” value in assay [4] was found to be 0.042 µg/mL.

B4: sybody MR3 (VHH)
VHH: QVQLVESGGGLVQAGGSLRLSCAASGFPVNAHFMYWYRQAPGKEREWVAAIYSYGRTLYADSVKGRFTISRDNAKNTVYLQMNSLKPEDTAVYYCNVKDYGAASWEYDYWGQGTQVTVS
As for B4, the “IC50 of neutralisation of SARS-CoV-2 S pseudovirus on VeroE6-hACE2 cells (blocks RBD-ACE2)” value in assay [5] was 0.42 µg/mL. Also, in assay [3], binding was put at a Kd of 1 nM and the koff (in general, the first-order rate constant of dissociation) is 0.00023 s⁻¹.
